From paper PMC10761686

Experiments:
[1] = molecular target: actin from rabbit skeletal muscle, as filaments (F-actin) capped at their barbed ends by gelsolin (rabbit) (UniProt P68135)
[2] = molecular target: actin from rabbit skeletal muscle, as filaments (F-actin) capped at their barbed ends by gelsolin (rabbit) (UniProt P68135); remark: listed apart in the source

capping activity against TMOD1^wt: inhibition of pyrene-actin polymerisation at pointed ends of long filaments (1:100 gelsolin to actin), without TPM1 (fold weaker than TMOD1^wt) [1]: 2 | capping activity against TMOD1^wt: inhibition of pyrene-actin polymerisation at pointed ends of short filaments (1:10 gelsolin to actin), without TPM1 (fold weaker than TMOD1^wt) [1]: 2 | inhibition of pyrene-actin depolymerisation from pointed ends against TMOD1^wt, long filaments (1:100 gelsolin to actin), without TPM1 (fold weaker than TMOD1^wt) [2]: 2 | inhibition of pyrene-actin depolymerisation from pointed ends against TMOD1^wt, short filaments (1:10 gelsolin to actin), without TPM1 (fold weaker than TMOD1^wt) [2]: 5
Substance: tropomodulin 1 (TMOD1) with the patient variant p.R189W, purified recombinant human (from UniProt P28289-1 1-359) (natural protein)
